Laboratory results reported in patent US20220259318A1 (Hoffmann-La Roche, published 2022).
“And” between values parts separate entries of the source, which are not always exact repeats. Identical values can stand only once.

B1: P1AE5709 (antibody, V domains shown)
VH: EVQLLESGGGLVQPGGSLRLSCAASGFTFSKYAMAWVRQAPGKGLEWVASISTGGVNTYYRDSVKARFTISRDNSKNTLYLQMNSLRAEDTAVYYCATHTGDYFDYWGQGTMVTVSS
VL: EIVLTQSPGTLSLSPGERATLSCRASQSVSISGINLMNWYQQKPGQQPRLLIYHASILASGIPDRFSGSGSGTDFTLTISRLEPEDFAVYYCQQTRESPLTFGQGTRLEIK
notes: Humanized 5E11 IgG; PGLALA Fc implied by the CAR-J assay; also called 5E11_VH1a + 5E11_VL2a
B2: P1AE5707 (antibody, V domains shown)
VH: EVQLLESGGGLVQPGGSLRLSCAASGFTFSKYAMAWVRQAPGKGLEWVASISTGGVNTYYRDSVKARFTISRDNSKNTLYLQMNSLRAEDTAVYYCATHTGDYFDYWGQGTMVTVSS
VL: DIVMTQSPDSLAVSLGERATINCRASQSVSISGINLMNWYQQKPGQQPKLLIYHASILASGVPDRFSGSGSGTDFTLTISSLQAEDVAVYYCQQTRESPLTFGQGTRLEIK
notes: Humanized 5E11 IgG; PGLALA Fc implied by the CAR-J assay; also called 5E11_VH1a + 5E11_VL1a
B3: P1AE5708 (antibody, V domains shown)
VH: EVQLLESGGGLVQPGGSLRLSCAASGFTFSKYAMAWVRQAPGKGLEWVASISTGGVNTYYRDSVKARFTISRDNSKNTLYLQMNSLRAEDTAVYYCATHTGDYFDYWGQGTMVTVSS
VL: DIVMTQSPDSLAVSLGERATINCKSSQSVSISGINLMNWYQQKPGQQPKLLIYHASILASGVPDRFSGSGSGTDFTLTISSLQAEDVAVYYCQQTRESPLTFGQGTRLEIK
notes: Humanized 5E11 IgG; PGLALA Fc implied by the CAR-J assay; also called 5E11_VH1a + 5E11_VL1c
B4: P1AE5714 (antibody, V domains shown)
VH: ELQLLESGGGLVQPGGSLRLSCAASGFTFSKYAMAWVRQAPGKGLEWVASISTGGVNTYYRDSVKARFTISRDNAKNTLYLQMNSLRAEDTAVYYCATHTGDYFDYWGQGTMVTVSS
VL: DIVMTQSPDSLAVSLGERATINCRASQSVSISGINLMNWYQQKPGQQPKLLIYHASILASGVPDRFSGSGSGTDFTLTISSLQAEDVAVYYCQQTRESPLTFGQGTRLEIK
notes: Humanized 5E11 IgG; PGLALA Fc implied by the CAR-J assay; also called 5E11_VH1b + 5E11_VL1a
B5: P1AE5710 (antibody, V domains shown)
VH: EVQLLESGGGLVQPGGSLRLSCAASGFTFSKYAMAWVRQAPGKGLEWVASISTGGVNTYYRDSVKARFTISRDNSKNTLYLQMNSLRAEDTAVYYCATHTGDYFDYWGQGTMVTVSS
VL: EIVLTQSPGTLSLSPGERATLSCRASQSVSISGINLMNWYQQKPGQQPKLLIYHASILASGIPDRFSGSGSGTDFTLTISRLEPEDFAVYYCQQTRESPLTFGQGTRLEIK
notes: Humanized 5E11 IgG; PGLALA Fc implied by the CAR-J assay; also called 5E11_VH1a + 5E11_VL2b
B6: P1AE5715 (antibody, V domains shown)
VH: ELQLLESGGGLVQPGGSLRLSCAASGFTFSKYAMAWVRQAPGKGLEWVASISTGGVNTYYRDSVKARFTISRDNAKNTLYLQMNSLRAEDTAVYYCATHTGDYFDYWGQGTMVTVSS
VL: DIVMTQSPDSLAVSLGERATINCKSSQSVSISGINLMNWYQQKPGQQPKLLIYHASILASGVPDRFSGSGSGTDFTLTISSLQAEDVAVYYCQQTRESPLTFGQGTRLEIK
notes: Humanized 5E11 IgG; PGLALA Fc implied by the CAR-J assay; also called 5E11_VH1b + 5E11_VL1c
B7: P1AE5716 (antibody, V domains shown)
VH: ELQLLESGGGLVQPGGSLRLSCAASGFTFSKYAMAWVRQAPGKGLEWVASISTGGVNTYYRDSVKARFTISRDNAKNTLYLQMNSLRAEDTAVYYCATHTGDYFDYWGQGTMVTVSS
VL: EIVLTQSPGTLSLSPGERATLSCRASQSVSISGINLMNWYQQKPGQQPRLLIYHASILASGIPDRFSGSGSGTDFTLTISRLEPEDFAVYYCQQTRESPLTFGQGTRLEIK
notes: Humanized 5E11 IgG; PGLALA Fc implied by the CAR-J assay; also called 5E11_VH1b + 5E11_VL2a
B8: P1AE5729 (antibody, V domains shown)
VH: ELQLLESGGGLVQPGGSLRLSCAASGFTFSKYAMAWVRQAPGKGLEWVASISTGGVNTYYADSVKGRFTISRDNAKNTLYLQMNSLRAEDTAVYYCATHTGDYFDYWGQGTMVTVSS
VL: EIVLTQSPGTLSLSPGERATLSCRASQSVSISGINLMNWYQQKPGQQPKLLIYHASILASGIPDRFSGSGSGTDFTLTISRLEPEDFAVYYCQQTRESPLTFGQGTRLEIK
notes: Humanized 5E11 IgG; PGLALA Fc implied by the CAR-J assay; also called 5E11_VH1d + 5E11_VL2b
B9: P1AE5720 (antibody, V domains shown)
VH: EVQLLESGGGLVQPGGSLRLSCAASGFTFSKYAMAWVRQAPGKGLEWVASISTGGVNTYYADSVKGRFTISRDNSKNTLYLQMNSLRAEDTAVYYCATHTGDYFDYWGQGTMVTVSS
VL: DIVMTQSPDSLAVSLGERATINCRASQSVSISGINLMNWYQQKPGQQPKLLIYHASILASGVPDRFSGSGSGTDFTLTISSLQAEDVAVYYCQQTRESPLTFGQGTRLEIK
notes: Humanized 5E11 IgG; PGLALA Fc implied by the CAR-J assay; also called 5E11_VH1c + 5E11_VL1a
B10: P1AE5713 (antibody, V domains shown)
VH: EVQLLESGGGLVQPGGSLRLSCAASGFTFSKYAMAWVRQAPGKGLEWVASISTGGVNTYYRDSVKARFTISRDNSKNTLYLQMNSLRAEDTAVYYCATHTGDYFDYWGQGTMVTVSS
VL: DIQMTQSPSSLSASVGDRVTITCRASQSVSISGINLMNWYQQKPGQQPKLLIYHASILASGVPSRFSGSGSGTDFTLTISSLQPEDFATYYCQQTRESPLTFGQGTRLEIK
notes: Humanized 5E11 IgG; PGLALA Fc implied by the CAR-J assay; also called 5E11_VH1a + 5E11_VL3b
B11: P1AE5717 (antibody, V domains shown)
VH: ELQLLESGGGLVQPGGSLRLSCAASGFTFSKYAMAWVRQAPGKGLEWVASISTGGVNTYYRDSVKARFTISRDNAKNTLYLQMNSLRAEDTAVYYCATHTGDYFDYWGQGTMVTVSS
VL: EIVLTQSPGTLSLSPGERATLSCRASQSVSISGINLMNWYQQKPGQQPKLLIYHASILASGIPDRFSGSGSGTDFTLTISRLEPEDFAVYYCQQTRESPLTFGQGTRLEIK
notes: Humanized 5E11 IgG; PGLALA Fc implied by the CAR-J assay; also called 5E11_VH1b + 5E11_VL2b
B12: P1AE5722 (antibody, V domains shown)
VH: EVQLLESGGGLVQPGGSLRLSCAASGFTFSKYAMAWVRQAPGKGLEWVASISTGGVNTYYADSVKGRFTISRDNSKNTLYLQMNSLRAEDTAVYYCATHTGDYFDYWGQGTMVTVSS
VL: EIVLTQSPGTLSLSPGERATLSCRASQSVSISGINLMNWYQQKPGQQPRLLIYHASILASGIPDRFSGSGSGTDFTLTISRLEPEDFAVYYCQQTRESPLTFGQGTRLEIK
notes: Humanized 5E11 IgG; PGLALA Fc implied by the CAR-J assay; also called 5E11_VH1c + 5E11_VL2a
B13: 10B10-TCB (bispecific antibody, human IgG1, kappa, L234A L235A)
light 1: DIQLTQSPHSLSASLGETVSIECLASEGISNYLAWFHQKPGKSPQLLIYYASSLQDGVPSRFSGSGSGTQYSLKISNMQPEDEGVYYCQQGYKYPLTFGSGTKLEIKRTVAAPSVFIFPPSDRKLKSGTASVVCLLNNFYPREAKVQWKVDNALQSGNSQESVTEQDSKDSTYSLSSTLTLSKADYEKHKVYACEVTHQGLSSPVTKSFNRGEC
light 2: EVQLLESGGGLVQPGGSLRLSCAASGFTFSTYAMNWVRQAPGKGLEWVSRIRSKYNNYATYYADSVKGRFTISRDDSKNTLYLQMNSLRAEDTAVYYCVRHGNFGNSYVSWFAYWGQGTLVTVSSASVAAPSVFIFPPSDEQLKSGTASVVCLLNNFYPREAKVQWKVDNALQSGNSQESVTEQDSKDSTYSLSSTLTLSKADYEKHKVYACEVTHQGLSSPVTKSFNRGEC
heavy 1: EVQLVESGGGLVQPGRSMKLSCAASGFTFTNFYMAWVRQAPTKALEWVASINTGGGYTYYRDSVKGRFTVSRDNTRSTLYLQMDSLRSEETATYYCARHLTYYGRYYYFDYWGQGVMVTVSSASTKGPSVFPLAPSSKSTSGGTAALGCLVEDYFPEPVTVSWNSGALTSGVHTFPAVLQSSGLYSLSSVVTVPSSSLGTQTYICNVNHKPSNTKVDEKVEPKSCDKTHTCPPCPAPEAAGGPSVFLFPPKPKDTLMISRTPEVTCVVVDVSHEDPEVKFNWYVDGVEVHNAKTKPREEQYNSTYRVVSVLTVLHQDWLNGKEYKCKVSNKALGAPIEKTISKAKGQPREPQVCTLPPSRDELTKNQVSLSCAVKGFYPSDIAVEWESNGQPENNYKTTPPVLDSDGSFFLVSKLTVDKSRWQQGNVFSCSVMHEALHNHYTQKSLSLSPGK
heavy 2: not shown

Columns and labels:
human GPRC5D [1] = target: T1, human GPRC5D (human, UniProt Q9NZD1 1-345); assay: cell-based or functional assay
human GPRC5D [2] = target: T1, human GPRC5D; assay: cell ELISA, CHO hu GPRC5D (EC/IC50 rel)
Description: Stable transfected CHO clones expressing either human GPRCSD or cynomolgus GPRCSD or murine GPRCSD or human GPRCSA were used to analyze the binding of potential lead candidate antibodies as IgGs. In detail, 10⁴ cells (viability≥98%) were seeded into 384 well-microtiter plates (BD Poly D-Lysin, #356662, volume: 25 μl/well) using fresh culture medium. After overnight incubation at 37° C., 25 μl/well dilutions of antibodies were added (15×1:3 dilutions in 1×PBS, assay conc. starts at 30 μg/ml) to the cells for 2 hours at 4° C. After one washing step using 90 μl/well PBST (10×PBS, Roche, #11666789001+0.1% Tween 20), cells were subsequently fixed by the addition of 50 μl/well 0.05% glutaraldehyde (Sigma Cat. No: G5882 in 1×PBS) for 10 min at room temperature (RT). After three additional washing steps using 90 μl/well PBST, secondary antibodies were added for detection: for human antibodies goat anti-human Ig a chain antibody HRP conjugate (Millipore #AP502P) diluted 1:2000 in blocking buffer (1×PBS (Roche #11666789001)+2% BSA (Bovine Serum Albumin Fraction V, fatty acid free, Roche, #10735086001)+0.05% Tween 20) was used (25 μl/well). […] After incubation for 1 h at RT and three additional washing steps using 90 μl/well PBST, 25 μl/well TMB substrate was added (Roche order no. 11835033001) for 10 min and color development to final ODs was determined by measurement at 370 nm/492 nm.
For the characterization of the humanization variants of the VH and VL domains of the GPRC5D binders the ELISA protocol as described above was used (see Example 7). The data are summarized in the table 10 for the humanization variants of 5E11 and in table 11 for the humanization variants of 5F11.

human GPRC5D [3] = target: T1, human GPRC5D; assay: cell-based or functional assay; remark: listed apart in the source

T1 sequence (Q9NZD1 whole entry): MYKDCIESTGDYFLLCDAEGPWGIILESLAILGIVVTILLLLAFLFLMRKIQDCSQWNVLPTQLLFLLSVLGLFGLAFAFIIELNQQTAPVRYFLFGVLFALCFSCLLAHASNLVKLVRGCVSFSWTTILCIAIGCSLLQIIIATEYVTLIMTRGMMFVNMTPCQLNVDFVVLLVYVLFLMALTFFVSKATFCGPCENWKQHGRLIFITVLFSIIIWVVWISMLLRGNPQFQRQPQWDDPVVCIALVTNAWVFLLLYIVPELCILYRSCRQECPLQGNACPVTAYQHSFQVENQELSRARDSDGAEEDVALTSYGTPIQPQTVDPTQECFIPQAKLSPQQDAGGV

Row | Binder | CAR-J2 EC50 [ng/mL] (PGLALA-CAR-J activation, L363 target cells) (human GPRC5D [1]) | EC50 (human GPRC5D [2]) | also measured
1 | B1 | 59.4 | 0.0191 µg/mL and 0.13 nM | 
2 | B2 | 42.4 | 0.0142 µg/mL and 0.09 nM | 
3 | B3 | 456 | 0.012 µg/mL and 0.08 nM | 
4 | B4 | 5.5 | 0.0129 µg/mL and 0.09 nM | 
5 | B5 | 3.5 | 0.0101 µg/mL and 0.07 nM | 
6 | B6 | 3.6 | 0.0211 µg/mL and 0.14 nM | 
7 | B7 | 3.3 | 0.0151 µg/mL and 0.1 nM | 
8 | B8 | 61.3 | 0.0104 µg/mL and 0.07 nM | 
9 | B9 | 6.3 | 0.0217 µg/mL and 0.14 nM | 
10 | B10 | 76.9 | 0.0165 µg/mL and 0.11 nM | 
11 | B11 | 79.9 | 0.0139 µg/mL and 0.09 nM | 
12 | B12 | 4.6 | 0.0197 µg/mL and 0.13 nM | 
13 | B13 |  |  | EC50 in vitro killing assay, AMO-1 (human GPRC5D [3]): 0.084 nM; EC50 in vitro killing assay, EJM (human GPRC5D [3]): 0.079 nM; EC50 in vitro killing assay, L363 (human GPRC5D [3]): 0.034 nM; EC50 in vitro killing assay, MOLP-2 (human GPRC5D [3]): 0.16 nM; EC50 in vitro killing assay, NCI-H929 (human GPRC5D [3]): 0.056 nM; EC50 in vitro killing assay, OPM-2 (human GPRC5D [3]): 0.028 nM; EC50 in vitro killing assay, RPMI (human GPRC5D [3]): 0.965 nM
